Numbering of substitutions follows the chain as printed. Names may count otherwise. Like-named read-outs stand apart in the source and are kept apart here.

These results are taken from patent US20200199241A1 (Chugai, published 2020).

Test [1] has as its target T1, human FcγRIa (human, UniProt P12314 16-292, limits assumed).
T1 construct: also called FcgRIa; hFcgRIa
Put plainly: SPR, pH 7.4, antibody captured by Protein L.

Test [2] deals with T2, human FcγRIIa(R) (human, UniProt P12318 36-217).
T2 construct: also called FcgRIIaR; hFcgRIIa(R)
T2 chain: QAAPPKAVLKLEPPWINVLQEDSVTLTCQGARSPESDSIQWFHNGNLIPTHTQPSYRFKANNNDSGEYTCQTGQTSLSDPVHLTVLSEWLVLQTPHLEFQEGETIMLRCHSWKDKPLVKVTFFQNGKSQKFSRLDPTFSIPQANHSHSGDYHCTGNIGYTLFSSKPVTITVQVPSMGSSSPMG
Put plainly: SPR, pH 7.4, antibody captured by Protein L.

Test [3] addresses T3, human FcγRIIa(H) (human, UniProt P12318 36-217).
T3 construct: also called FcgRIIaH; hFcgRIIa(H)
T3 sequence: T2 chain with R133H
The test is described as follows: SPR, pH 7.4, antibody captured by Protein L.

Test [4] deals with T4, human FcγRIIb (human, UniProt P31994 43-217, limits assumed).
T4 construct: also called FcgRIIb; hFcgRIIb
T4 sequence: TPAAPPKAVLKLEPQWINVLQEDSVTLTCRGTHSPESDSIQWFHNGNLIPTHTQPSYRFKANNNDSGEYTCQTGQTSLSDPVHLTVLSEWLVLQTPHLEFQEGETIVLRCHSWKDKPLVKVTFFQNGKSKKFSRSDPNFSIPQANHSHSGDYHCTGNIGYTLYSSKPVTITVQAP
Put plainly: SPR, pH 7.4, antibody captured by Protein L.

The target of test [5] is T5, human FcγRIIIa(V) (human, UniProt P08637 17-208, limits assumed).
T5 construct: also called hFcgRIIIa(V); FcγRIIIa allotype V158
Put plainly: SPR, pH 7.4, antibody captured by Protein L.

For test [6], the target named is T6, human FcRn (complex with human β2-microglobulin) (human, UniProt P61769 21-119, limits assumed).
T6 construct: soluble human FcRn complexed with β2-microglobulin was used; also called hFcRn
The test is described as follows: SPR, pH 7.0, antibody captured by Protein L, hFcRn analyte.

Test [7] addresses T7, human FcRn (soluble human FcRn complexed with β2-microglobulin) (human, UniProt P61769 21-119, limits assumed).
T7 construct: also called hFcRn
The test is described as follows: SPR, antibody captured by Protein L, human FcRn as analyte, pH 7.0, 25 C.

For test [8], the target named is T8, mouse FcγRIIb (mouse, UniProt P08101 30-207, limits assumed).
T8 construct: bought; also called mFcgRIIb; mFcgR IIb
T8 sequence (looked up): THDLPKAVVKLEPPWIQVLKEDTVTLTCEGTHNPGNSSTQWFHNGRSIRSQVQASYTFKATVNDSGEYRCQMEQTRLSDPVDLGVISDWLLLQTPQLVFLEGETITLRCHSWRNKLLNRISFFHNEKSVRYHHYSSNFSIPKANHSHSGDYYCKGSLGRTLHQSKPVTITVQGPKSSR
The test is described as follows: SPR, antibody captured by Protein L, mouse FcγR as analyte, pH 7.4, 25 C.

Test [9] has as its target T9, mouse FcγRIII (mouse, UniProt P08508 31-215).
T9 construct: bought; also called mFcgRIII; mFcgR III
T9 sequence (looked up): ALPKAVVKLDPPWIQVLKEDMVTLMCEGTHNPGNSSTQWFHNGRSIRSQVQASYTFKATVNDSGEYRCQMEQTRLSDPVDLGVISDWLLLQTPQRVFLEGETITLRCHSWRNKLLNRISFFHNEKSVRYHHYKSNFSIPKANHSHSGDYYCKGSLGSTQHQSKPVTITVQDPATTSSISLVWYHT
Described as above.

Test [10] addresses T10, mouse FcγRIV (mouse, UniProt A0A0B4J1G0 21-203).
T10 construct: bought; also called mFcgRIV; mFcgR IV; the vendor's purification tag not given
T10 sequence: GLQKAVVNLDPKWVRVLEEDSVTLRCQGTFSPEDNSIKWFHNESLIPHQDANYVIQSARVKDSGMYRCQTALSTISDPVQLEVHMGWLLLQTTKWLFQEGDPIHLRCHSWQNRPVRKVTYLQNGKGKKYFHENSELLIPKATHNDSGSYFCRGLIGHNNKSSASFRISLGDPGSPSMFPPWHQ
The test is described as above.

For test [11], the target named is T7, human FcRn (soluble human FcRn …). Put plainly: SPR, antibody captured by Protein L, human FcRn as analyte, pH 7.0, 25 C. The source holds these as a separate data set.
In test [12] the target is T11, human FcγRIa (human, UniProt P12314 16-292, limits assumed).
T11 construct: also called hFcgRIa; hFcgRI
The test is described as follows: SPR, antibody captured by Protein L, human FcγR as analyte, pH 7.4, 25 C.

The target of test [13] is T12, mouse FcγRI (mouse, UniProt P26151 25-297).
T12 construct: bought; also called mFcgRI; mFcgR 1
T12 sequence (looked up): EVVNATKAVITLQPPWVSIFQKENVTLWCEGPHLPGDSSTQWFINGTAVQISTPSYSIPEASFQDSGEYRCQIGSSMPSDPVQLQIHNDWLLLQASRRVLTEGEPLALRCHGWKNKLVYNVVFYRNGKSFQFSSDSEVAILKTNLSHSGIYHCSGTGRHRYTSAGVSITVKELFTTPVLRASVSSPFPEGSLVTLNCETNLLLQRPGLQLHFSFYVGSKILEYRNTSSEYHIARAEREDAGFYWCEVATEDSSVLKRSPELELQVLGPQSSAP
Put plainly: SPR, antibody captured by Protein L, mouse FcγR as analyte, pH 7.4, 25 C.

Test [14] addresses T7, human FcRn (soluble human FcRn …). The test is described as follows: SPR, antibody captured by Protein L, human FcRn as analyte, pH 7.0, 25 C. This is another data set of the same source.
In test [15] the target is T13, human FcγRIIb (human, UniProt P31994 43-217, limits assumed).
T13 construct: also called hFcgRIIb; FcγIIB
T13 sequence: T4 sequence
Put plainly: SPR, antibody captured by Protein L, human FcγR as analyte, pH 7.4, 25 C.

The target in test [16] is T11, human FcγRIa. Described as above. The source holds these as a separate data set.

T6 sequence (chain, as listed by the source limits assumed, chain 1 of 2): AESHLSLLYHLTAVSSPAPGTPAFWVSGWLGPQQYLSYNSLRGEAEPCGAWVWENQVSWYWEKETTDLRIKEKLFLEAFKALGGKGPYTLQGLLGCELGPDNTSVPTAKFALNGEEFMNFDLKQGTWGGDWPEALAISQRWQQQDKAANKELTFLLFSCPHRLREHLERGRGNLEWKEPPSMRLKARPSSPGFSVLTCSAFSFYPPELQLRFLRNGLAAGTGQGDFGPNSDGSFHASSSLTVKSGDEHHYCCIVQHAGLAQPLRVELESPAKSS
T6 sequence (P61769 21-119 limits assumed, chain 2 of 2): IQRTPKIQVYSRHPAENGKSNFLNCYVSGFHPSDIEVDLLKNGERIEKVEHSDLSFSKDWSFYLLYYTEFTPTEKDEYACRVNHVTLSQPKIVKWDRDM
T7 sequence (chain, as listed by the source limits assumed, chain 1 of 2): as the sequence (chain, as listed by the source limits assumed, chain 1 of 2) above
T7 sequence (P61769 21-119 limits assumed, chain 2 of 2): as the sequence (P61769 21-119 limits assumed, chain 2 of 2) above
T5 sequence (P08637 other isoform, or with tags, fused parts or gaps limits assumed): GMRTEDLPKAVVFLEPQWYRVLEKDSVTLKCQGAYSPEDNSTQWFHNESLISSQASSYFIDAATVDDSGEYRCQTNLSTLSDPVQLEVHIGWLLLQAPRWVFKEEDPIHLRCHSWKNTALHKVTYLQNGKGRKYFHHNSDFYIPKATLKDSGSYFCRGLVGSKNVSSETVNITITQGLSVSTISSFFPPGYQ

B1: VH3-IgG2-F939/L(WT)-CK (antibody)
heavy: QVQLQESGPGLVKPSETLSLTCAVSGHSISHDHAWSWVRQPPGEGLEWIGFISYSGITNYNPSLQGRVTISRDNSKNTLYLQMNSLRAEDTAVYYCARSLARTTAMDYWGEGTLVTVSSASTKGPSVFPLAPCSRSTSESTAALGCLVKDYFPEPVTVSWNSGALTSGVHTFPAVLQSSGLYSLSSVVTVPSSNFGTQTYTCNVDHKPSNTKVDKTVERKCCVECPPCPAPPVRGPKVFLFPPKPKDTLYISRTPEVTCVVVDVSHEDPEVQFNWYVDGVEVHNAKTKPREEQFNSTFRVVSVLTVVHQDWLNGKEYKCKVSNKGLPAPIEKTISKTKGQPREPQVYTLPPSREEMTKNQVSLTCLVKGFYPSDIAVEWESNGQPENNYKTTPPMLDSDGSFFLYSKLTVDKSRWQQGNVFSCSVMHEALHYHVTQKSLSLSP
light: not shown
notes: A235R/S239K/M252Y/N434Y/Y436V in VH3-IgG2; copies: 2 + 2
For the molecule B1, the binding amount in [1] was found to be 1.3 RU; in [2], 1 RU; in test [3], 1 RU; in test [4], 0.4 RU; in [5], 1.1 RU. In test [6], binding was put at a Kd of 140 nM.

B2: VH3/L(WT)-IgG1-F140 (VH3-IgG1-F140 heavy chain, L(WT)-CK light chain) (antibody)
heavy: QVQLQESGPGLVKPSETLSLTCAVSGHSISHDHAWSWVRQPPGEGLEWIGFISYSGITNYNPSLQGRVTISRDNSKNTLYLQMNSLRAEDTAVYYCARSLARTTAMDYWGEGTLVTVSSASTKGPSVFPLAPSSKSTSGGTAALGCLVKDYFPEPVTVSWNSGALTSGVHTFPAVLQSSGLYSLSSVVTVPSSSLGTQTYICNVNHKPSNTKVDKKVEPKSCDKTHTCPPCPAPELLGGPKVFLFPPKPKDTLYISRTPEVTCVVVDVSHEDPEVKFNWYVDGVEVHNAKTKPREEQYNSTYRVVSVLTPLHQDWLNGKEYKCKVSNKALPAPIEKTISKAKGQPREPQVYTLPPSRDELTKNQVSLTCLVKGFYPSDIAVEWESNGQPENNYKTTPPVLDSDGSFFLYSKLTVDKSRWQQGNVFSCSVMHEALHYHYTQKSLSLSP
light: not shown
notes: S239K/M252Y/V308P/N434Y; copies: 2 + 2
On to B2, for which the Kd in [7] and in test [11] was 36 nM throughout. The “BINDING AMOUNT (RU)” value in test [8] is -1.8 RU; in test [9] it was 46.6 RU; in [10], 108 RU; in test [12], 335 RU.

B3: antibody with VH3-IgG1-F424 heavy chain and L(WT)-CK light chain (antibody)
heavy: B2 heavy with Y254M, P259A, M430L
light: not shown
notes: S239K/P257A/V308P/M428L/N434Y; copies: 2 + 2
With B3, in test [7], the affinity, expressed as Kd, was 94 nM. Moreover, the “BINDING AMOUNT (RU)” value in test [8] was -2.5 RU; in [10], 138 RU.

B4: antibody with VH3-IgG1-F157 heavy chain and L(WT)-CK light chain (antibody)
heavy: B2 heavy with K241S, Y254M, P259A, M430L
light: not shown
notes: P257A/V308P/M428L/N434Y; also called 1gG1-F157; copies: 2 + 2
With B4, the Kd in [7] came out at 150 nM. The “BINDING AMOUNT (RU)” value is 315 RU in test [13], 129 RU in [8], 276 RU in [9] and 243 RU in test [10].

B5: VH3/L(WT)-IgG1-F699 (antibody, name in EU numbering)
heavy: B2 heavy with N288E, T309Q, P310V, Q313A
light: not shown
notes: copies: 2 + 2
B5 registered a Kd in [14] of 23 nM. For the same molecule, the “BINDING AMOUNT (RU)” value is -0.3 RU in test [15] and 164 RU in [16].

B6: VH3-IgG4-F890/L(WT)-CK (antibody)
heavy: QVQLQESGPGLVKPSETLSLTCAVSGHSISHDHAWSWVRQPPGEGLEWIGFISYSGITNYNPSLQGRVTISRDNSKNTLYLQMNSLRAEDTAVYYCARSLARTTAMDYWGEGTLVTVSSASTKGPSVFPLAPCSRSTSESTAALGCLVKDYFPEPVTVSWNSGALTSGVHTFPAVLQSSGLYSLSSVVTVPSSSLGTKTYTCNVDHKPSNTKVDKRVESKYGPPCPPCPAPEFLGGPSVFLFPPKPKDTLYISRTPEVTCVVVDVSQEDPEVQFNWYVDGVEVHNAKTKPREEQFNSTYRVVSVLTVLHQDWLNGKEYKCKVSNKGLPSSIEKTISKAKGQPREPQVYTLPPSQEEMTKNQVSLTCLVKGFYPSDIAVEWESNGQPENNYKTTPPVLDSDGSFFLYSRLTVDKSRWQEGNVFSCSVMHEALHYHVTQKSLSLSL
light: not shown
notes: M252Y/N434Y/Y436V in VH3-IgG4; copies: 2 + 2
On to B6, for which the binding amount in test [1] is 367 RU; in test [2] it was 92.8 RU; in test [3], 37.5 RU; in test [4], 71.8 RU; in [5] it was 15.5 RU. Also, the Kd in [6] turned out to be 140 nM.

B7: VH3-IgG4-F939/L(WT)-CK (antibody)
heavy: B6 heavy with L234R, S238K
light: not shown
notes: L235R/S239K/M252Y/N434Y/Y436V in VH3-IgG4; copies: 2 + 2
In the case of B7, the binding amount in test [1] is 1.2 RU; in test [2], -0.2 RU; in [3], -0.7 RU; in test [4] it was 0.4 RU; in [5] it was -0.5 RU. Besides, the Kd in test [6] came out at 110 nM.
